Columns and labels:
[1] = target: T1, human PD-L1-Fc fusion protein (Sino Biological Cat #10084-H02H) (human, UniProt Q9NZQ7 19-239); assay: competition ELISA, PD1-Fc (1 ug/mL) coated, biotinylated PD-L1-Fc mixed with antibody, HRP neutravidin; blocked ligand PD1-Fc
T1 construct: bought; not shown: Fc part of the bought fusion

[2] = target: T2, human CTLA4 expressed on HEK293F cells (human, UniProt P16410 36-223); assay: flow cytometry on transfected HEK293F cells
T2 construct: whole, on cells

[3] = target: T3, human B7-H3 expressed on HEK293F cells (human, UniProt Q5ZPR3 29-534); assay: flow cytometry on transfected HEK293F cells
T3 construct: whole, on cells
T3 sequence (looked up): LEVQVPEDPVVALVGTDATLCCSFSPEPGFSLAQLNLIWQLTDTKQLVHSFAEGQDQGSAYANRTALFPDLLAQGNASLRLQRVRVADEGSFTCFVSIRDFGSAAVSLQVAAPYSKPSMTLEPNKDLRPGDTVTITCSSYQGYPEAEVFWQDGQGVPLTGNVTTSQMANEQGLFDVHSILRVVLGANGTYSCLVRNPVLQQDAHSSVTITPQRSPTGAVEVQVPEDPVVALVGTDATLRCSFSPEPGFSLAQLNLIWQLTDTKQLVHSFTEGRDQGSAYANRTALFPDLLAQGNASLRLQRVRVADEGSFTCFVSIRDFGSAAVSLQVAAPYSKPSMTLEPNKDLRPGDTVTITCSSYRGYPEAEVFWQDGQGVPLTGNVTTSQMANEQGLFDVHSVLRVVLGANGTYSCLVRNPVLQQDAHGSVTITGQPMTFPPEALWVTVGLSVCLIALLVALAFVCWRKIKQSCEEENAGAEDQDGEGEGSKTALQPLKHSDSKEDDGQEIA

[4] = target: T4, human LAG3 expressed on HEK293F cells (human, UniProt P18627 23-525); assay: flow cytometry on transfected HEK293F cells
T4 construct: whole, on cells
T4 sequence (looked up): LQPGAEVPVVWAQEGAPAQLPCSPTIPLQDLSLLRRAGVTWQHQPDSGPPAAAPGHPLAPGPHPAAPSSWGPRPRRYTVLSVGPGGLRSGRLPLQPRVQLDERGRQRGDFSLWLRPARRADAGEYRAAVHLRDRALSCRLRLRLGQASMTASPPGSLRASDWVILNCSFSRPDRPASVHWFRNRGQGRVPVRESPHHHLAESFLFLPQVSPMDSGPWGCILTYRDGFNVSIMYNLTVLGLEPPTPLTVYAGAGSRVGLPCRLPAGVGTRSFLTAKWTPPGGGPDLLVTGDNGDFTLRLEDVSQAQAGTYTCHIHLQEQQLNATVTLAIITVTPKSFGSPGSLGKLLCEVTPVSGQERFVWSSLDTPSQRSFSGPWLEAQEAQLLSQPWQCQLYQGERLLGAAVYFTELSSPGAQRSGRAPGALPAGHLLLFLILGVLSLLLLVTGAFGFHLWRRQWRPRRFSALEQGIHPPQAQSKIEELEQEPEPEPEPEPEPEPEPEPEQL

[5] = target: T5, human TIM3 expressed on HEK293F cells (human, UniProt Q8TDQ0 22-301); assay: flow cytometry on transfected HEK293F cells
T5 construct: whole, on cells

[6] = target: T6, human PD1 expressed on HEK293F cells (human, UniProt Q15116 25-288); assay: flow cytometry on transfected HEK293F cells
T6 construct: whole, on cells
T6 sequence (Q15116 25-288): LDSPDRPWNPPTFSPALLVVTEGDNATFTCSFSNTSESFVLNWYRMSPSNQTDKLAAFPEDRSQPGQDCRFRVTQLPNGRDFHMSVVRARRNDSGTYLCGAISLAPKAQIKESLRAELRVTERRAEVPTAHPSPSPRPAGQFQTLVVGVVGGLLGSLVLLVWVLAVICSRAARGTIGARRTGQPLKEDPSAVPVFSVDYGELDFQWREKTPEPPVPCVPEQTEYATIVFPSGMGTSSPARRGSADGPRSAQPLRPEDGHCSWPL

[7] = target: T7, human PD-L1 expressed on cell surface (human, UniProt Q9NZQ7 19-290); assay: cell-based or functional assay
T7 sequence (Q9NZQ7 19-290): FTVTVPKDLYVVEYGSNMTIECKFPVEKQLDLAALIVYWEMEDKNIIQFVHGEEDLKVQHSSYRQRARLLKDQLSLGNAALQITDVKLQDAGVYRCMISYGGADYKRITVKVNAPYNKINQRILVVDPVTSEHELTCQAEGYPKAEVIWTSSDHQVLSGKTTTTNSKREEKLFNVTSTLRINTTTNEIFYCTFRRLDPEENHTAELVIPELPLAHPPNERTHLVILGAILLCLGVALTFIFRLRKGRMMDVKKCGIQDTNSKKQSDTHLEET

[8] = target: T1, human PD-L1-Fc fusion protein (Sino …); assay: SPR (Biacore T200), human PD-L1-Fc immobilized (300 RU), IgG in solution
[9] = target: T8, mouse PD-L1-Fc fusion protein (mouse, UniProt Q9EP73 19-238, limits assumed); assay: SPR (Biacore T200), PD-L1-Fc immobilized (about 500 RU), IgG in solution
T8 construct: not shown: Fc part
T8 sequence (Q9EP73 19-238 limits assumed): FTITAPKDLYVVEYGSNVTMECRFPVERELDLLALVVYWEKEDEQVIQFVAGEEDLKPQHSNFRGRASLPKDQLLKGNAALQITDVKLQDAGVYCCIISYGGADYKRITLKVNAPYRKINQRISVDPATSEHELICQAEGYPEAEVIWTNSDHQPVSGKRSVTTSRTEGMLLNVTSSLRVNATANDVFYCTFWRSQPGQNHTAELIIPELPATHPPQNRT

[10] = target: T1, human PD-L1-Fc fusion protein (Sino …); assay: as above
[11] = target: T9, rat PD-L1-Fc fusion protein (Sino Biological cat #80450-R08H) (rat); assay: as above
T9 construct: text calls all four immobilized proteins PD-L1-Fc fusion proteins

[12] = target: T10, rhesus PD-L1-Fc fusion protein (Sino Biological cat #90251-C02H) (rhesus, UniProt F6PJN1 19-239); assay: as above
T10 construct: not shown: Fc part

[13] = target: T7, human PD-L1 expressed on cell surface; assay: flow cytometry on cells expressing human PD-L1 (legend of FIG. 5)
[14] = target: T11, rhesus PD-L1 expressed on HEK293F cells (rhesus, UniProt F6VEW6 19-290); assay: flow cytometry, HEK293F cells transiently expressing the target, 100 nM antibody, PE anti-human Fc; Mean (PE-A against FITC-A, GFP surrogate)
T11 construct: whole, on cells

[15] = target: T7, human PD-L1 expressed on cell surface; assay: as above
[16] = target: T6, human PD1 expressed on HEK293F cells; assay: as above

T1 sequence (Q9NZQ7 19-239 limits assumed): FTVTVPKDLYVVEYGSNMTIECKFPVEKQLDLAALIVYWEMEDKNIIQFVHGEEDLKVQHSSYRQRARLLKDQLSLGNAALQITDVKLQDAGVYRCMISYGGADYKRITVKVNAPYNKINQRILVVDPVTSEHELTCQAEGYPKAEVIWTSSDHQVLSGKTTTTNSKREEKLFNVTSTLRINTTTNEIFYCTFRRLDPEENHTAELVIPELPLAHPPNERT
T2 sequence (P16410 36-223): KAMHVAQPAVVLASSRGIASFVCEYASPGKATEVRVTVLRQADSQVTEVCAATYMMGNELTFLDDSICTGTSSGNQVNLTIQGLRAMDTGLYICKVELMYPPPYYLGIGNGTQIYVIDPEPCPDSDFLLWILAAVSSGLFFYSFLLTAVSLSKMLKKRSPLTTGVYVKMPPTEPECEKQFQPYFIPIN

B1: TY21421 (antibody, V domains shown)
VH: EVQLVESGGGLVQPGGSLRLSCAASGYSISSGYYWGWIRQAPGKGLEWIGIIYPSGGGTNYAQKFQGRVTISRDNSKNTLYLQLNSLRAEDTAVYYCARGGGLGFDYWGQGTLVTVSS
VL: DIQLTQSPSSLSASVGDRVTITCRASQSIPSFLNWYQQKPGKAPKLLIYAASSLQSGVPSRFSGSGSGTDFTLTISSLQPEDFATYYCQHYISWPRQFTFGQGTKVEIKR
notes: IgG1 (wild type) made from Fab B15041, from HEK293F cells
[1]
  IC50 (read off the curve): ~6 nM
[2]
  binding result: no binding (tested: 100 nM)
[3]
  binding result: no binding (tested: 100 nM)
[4]
  binding result: no binding (tested: 100 nM)
[5]
  binding result: no binding (tested: 100 nM)
[6]
  binding result: no binding (tested: 100 nM)
[7]
  Relative luminescence units (RLU), Promega PD1/PD-L1 reporter gene assay; EC50: 0.39 nM
[8]
  Kd: 0.00863 nM
  koff: 5.73e-05 s⁻¹
  kon: 6.64e+06 M⁻¹ s⁻¹
[9]
  Kd: 0.00186 nM
  koff: 2.06e-05 s⁻¹
  kon: 1.11e+07 M⁻¹ s⁻¹
[10]
  Kd: 0.00619 nM
  koff: 2.97e-05 s⁻¹
  kon: 4.8e+06 M⁻¹ s⁻¹
[11]
  Kd: 0.0209 nM
  koff: 0.000106 s⁻¹
  kon: 5.07e+06 M⁻¹ s⁻¹
[12]
  Kd: 0.00185 nM
  koff: 7.27e-06 s⁻¹
  kon: 3.93e+06 M⁻¹ s⁻¹
[13]
  EC50: ~1 nM
[14]
  Mean: 184000
[15]
  Mean: 170000
[16]
  Mean: 6980

Source: US20210122824A1 (ADAGENE, published 2021)
